Data published in the supplement of paper PMC7877785.
± gives the uncertainty stated by the source.

Assay: self-splicing fitness, log relative to wild type (ln ratio); higher = more splicing; Tetrahymena group I intron in knt gene, E. coli kanamycin selection, DiMSum; sequences stand for … in CUCUCU…GGAGGGAAAAGUUAUCAGGCAUGCACCUGGUAGCUAGUCUUUAAACCAAUAGAUUGCAUCGGUUUAAAAGGCAAGACCGUCAAAUUGCGGGAAAGGGGUCAACAGCCGUUCAGUACCAAGUCUCAGGGGAAACUUUGAGAUGGCCUUGCAAAGGGUAUGGUAAUAAGCUGACGGACAUGGUCCUAACCACGCAGCCAAGUCCUAAGUCAACAGAUCUUCUGUUGAUAUGGAUGCAGUUCACAGACUAAAUGUCGGUCGGGGAAGAUGUAUUCUUCUCAUAAGAUAUAGUCGGACCUCUCCUUAAUGGGAGCUAGCGGAUGAAGUGAUGCAACACUGGAGCCGCUGGGAACUAAUUUGUAUGCGAAAGUAUAUUGAUUAGUUUUGGAGUACUCGUGGUCG
How it was run: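 Colonies from six replicate transformations of E. coli BL21(DE3) were pooled and amplicon-sequenced on an Illumina HiSeq 2500. The library placed an intron with all eight P1ex-region nucleotides randomised inside the knt kanamycin-resistance gene on pET-22b(+), and cells grew overnight at 37°C or 30°C on LB agar with or without 25 μg/mL kanamycin (plus 100 μg/mL carbenicillin, 50 μM IPTG, 0.2% rhamnose). Fitness is the DiMSum error-weighted combination of wild-type-normalised replicate fold changes, kanamycin versus none.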

| Sequence | self-splicing fitness (ln) (30 °C) | self-splicing fitness (ln) (37 °C) |
| --- | --- | --- |
| GUCCAGCAAUAUUACGUACU | -2.47 ± 0.14 | -1.53 ± 0.14 |
| GUCCAGCAAUAUUACGUCAU | -0.201 ± 0.077 | 0.269 ± 0.081 |
| GUCCAGCAAUAUUACGUGUC | -0.424 ± 0.057 | 0.0485 ± 0.068 |
| GUCCAGCAAUAUUACGUUCC | -1.46 ± 0.083 | -0.198 ± 0.1 |
| GUCGAGCAAUAUUACGAACG | – | -1.02 ± 0.23 |
| GUCGAGCAAUAUUACGCACG | -1 ± 0.28 | – |
| GUCGAGCAAUAUUACGCGGU | – | -1.94 ± 0.32 |
| GUCGAGCAAUAUUACGGGAG | -3.67 ± 0.21 | -2.4 ± 0.2 |
| GUCGAGCAAUAUUACGUCCA | -2.21 ± 0.22 | -2.53 ± 0.26 |
| GUCGAGCAAUAUUACGUGGA | – | -2.46 ± 0.26 |
| GUCGAGCAAUAUUACGUGGG | -2.55 ± 0.21 | -0.374 ± 0.14 |
| GUCUAGCAAUAUUACGACAA | -2.6 ± 0.23 | -1.56 ± 0.26 |
| GUCUAGCAAUAUUACGACCA | -0.99 ± 0.26 | -2.1 ± 0.29 |
| GUCUAGCAAUAUUACGACCU | -2.33 ± 0.21 | -1.21 ± 0.17 |
| GUCUAGCAAUAUUACGACGA | -1.86 ± 0.18 | -0.293 ± 0.16 |
| GUCUAGCAAUAUUACGAGUU | -2.13 ± 0.12 | -1.32 ± 0.1 |
| GUCUAGCAAUAUUACGAUCG | -3.06 ± 0.17 | -1.09 ± 0.16 |
| GUCUAGCAAUAUUACGAUUU | -0.743 ± 0.056 | 0.36 ± 0.064 |
| GUCUAGCAAUAUUACGCAGG | -3.11 ± 0.3 | -3.31 ± 0.37 |
| GUCUAGCAAUAUUACGCAUA | -1.08 ± 0.14 | -0.121 ± 0.12 |
| GUCUAGCAAUAUUACGCAUU | 0.0861 ± 0.1 | 0.379 ± 0.092 |
| GUCUAGCAAUAUUACGCCCC | 0.281 ± 0.13 | -0.182 ± 0.12 |
| GUCUAGCAAUAUUACGCCCU | -0.702 ± 0.36 | -0.472 ± 0.37 |
| GUCUAGCAAUAUUACGCCUU | -0.385 ± 0.16 | 0.266 ± 0.15 |
| GUCUAGCAAUAUUACGCGAG | -1.08 ± 0.13 | 0.182 ± 0.13 |

| Sequence | self-splicing fitness (ln) (30 °C) | self-splicing fitness (ln) (37 °C) |
| --- | --- | --- |
| GUCUAGCAAUAUUACGCGUA | -0.384 ± 0.081 | 0.391 ± 0.09 |
| GUCUAGCAAUAUUACGGGGC | – | -2.34 ± 0.36 |
| GUCUAGCAAUAUUACGUACC | -0.591 ± 0.29 | -0.721 ± 0.3 |
| GUCUAGCAAUAUUACGUCGG | -3.43 ± 0.2 | -2.51 ± 0.2 |
| GUCUAGCAAUAUUACGUGUU | -1.61 ± 0.092 | -0.352 ± 0.093 |
| GUCUAGCAAUAUUACGUUAU | -0.954 ± 0.061 | -0.704 ± 0.055 |
| GUCUAGCAAUAUUACGUUUA | -0.64 ± 0.12 | -1 ± 0.1 |
| GUGAAGCAAUAUUACGAAGU | -0.832 ± 0.14 | -1.05 ± 0.16 |
| GUGAAGCAAUAUUACGACUC | 0.243 ± 0.26 | -0.398 ± 0.28 |
| GUGAAGCAAUAUUACGAUAA | -0.524 ± 0.15 | 0.6 ± 0.15 |
| GUGAAGCAAUAUUACGAUAU | -0.274 ± 0.044 | -0.103 ± 0.058 |
| GUGAAGCAAUAUUACGAUUC | -0.545 ± 0.098 | 0.0735 ± 0.17 |
| GUGAAGCAAUAUUACGCACC | – | -1.92 ± 0.34 |
| GUGAAGCAAUAUUACGCAUC | – | -1.69 ± 0.49 |
| GUGAAGCAAUAUUACGCCCU | -0.176 ± 0.13 | 0.602 ± 0.15 |
| GUGAAGCAAUAUUACGCUCG | -1.69 ± 0.11 | -0.267 ± 0.13 |
| GUGAAGCAAUAUUACGGCAC | -0.747 ± 0.16 | -0.289 ± 0.33 |
| GUGAAGCAAUAUUACGGCAU | 0.0954 ± 0.083 | 0.334 ± 0.089 |
| GUGAAGCAAUAUUACGGCUC | -0.996 ± 0.091 | -0.646 ± 0.099 |
| GUGAAGCAAUAUUACGGGCU | -2.08 ± 0.13 | -0.869 ± 0.15 |
| GUGAAGCAAUAUUACGGGUU | -1.67 ± 0.069 | -1.4 ± 0.1 |
| GUGAAGCAAUAUUACGUAUG | -2.38 ± 0.085 | -1.29 ± 0.088 |
| GUGAAGCAAUAUUACGUGCC | -1.92 ± 0.32 | -1.32 ± 0.36 |
| GUGCAGCAAUAUUACGAACA | -1.32 ± 0.22 | -1.25 ± 0.2 |
| GUGCAGCAAUAUUACGAAUA | -1.79 ± 0.14 | -1.07 ± 0.17 |

| Sequence | self-splicing fitness (ln) (30 °C) | self-splicing fitness (ln) (37 °C) |
| --- | --- | --- |
| GUGCAGCAAUAUUACGAAUC | -1.28 ± 0.17 | -0.491 ± 0.18 |
| GUGCAGCAAUAUUACGAAUU | -1.43 ± 0.091 | -0.441 ± 0.12 |
| GUGCAGCAAUAUUACGAGGU | -3.63 ± 0.3 | -2.47 ± 0.21 |
| GUGCAGCAAUAUUACGCCCG | -1.69 ± 0.36 | -1.51 ± 0.37 |
| GUGCAGCAAUAUUACGCGAG | -2.55 ± 0.13 | -1.7 ± 0.12 |
| GUGCAGCAAUAUUACGCUGG | -2.41 ± 0.12 | -1.09 ± 0.13 |
| GUGCAGCAAUAUUACGCUGU | -3.35 ± 0.24 | -2.63 ± 0.26 |
| GUGCAGCAAUAUUACGGACG | -2.47 ± 0.1 | -0.949 ± 0.11 |
| GUGCAGCAAUAUUACGGUAC | -2.67 ± 0.15 | -2.07 ± 0.17 |
| GUGCAGCAAUAUUACGUAGG | -1.28 ± 0.11 | -1.05 ± 0.16 |
| GUGCAGCAAUAUUACGUCUA | -0.238 ± 0.078 | 0.283 ± 0.083 |
| GUGCAGCAAUAUUACGUCUU | -1.33 ± 0.083 | -0.0365 ± 0.11 |
| GUGCAGCAAUAUUACGUGGA | -3.24 ± 0.28 | -2.24 ± 0.19 |
| GUGCAGCAAUAUUACGUGUC | -2.72 ± 0.16 | -2.48 ± 0.25 |
| GUGGAGCAAUAUUACGAAGU | -2.01 ± 0.28 | -1.66 ± 0.39 |
| GUGGAGCAAUAUUACGAAUU | – | -3.14 ± 0.47 |
| GUGGAGCAAUAUUACGACAA | -1.83 ± 0.24 | -1.38 ± 0.25 |
| GUGGAGCAAUAUUACGACUC | -3.19 ± 0.45 | -1.47 ± 0.44 |
| GUGGAGCAAUAUUACGAGGA | -3.96 ± 0.31 | -1.75 ± 0.19 |
| GUGGAGCAAUAUUACGAGGC | – | -1.03 ± 0.5 |
| GUGGAGCAAUAUUACGAUGC | -1.96 ± 0.15 | -1.03 ± 0.16 |
| GUGGAGCAAUAUUACGAUGU | -2.4 ± 0.23 | -0.928 ± 0.29 |
| GUGGAGCAAUAUUACGCACG | -2.63 ± 0.29 | -2.32 ± 0.25 |
| GUGGAGCAAUAUUACGCGCA | -1.48 ± 0.43 | -1.47 ± 0.35 |
| GUGGAGCAAUAUUACGGAAA | -1.87 ± 0.46 | – |

| Sequence | self-splicing fitness (ln) (30 °C) | self-splicing fitness (ln) (37 °C) |
| --- | --- | --- |
| GUGGAGCAAUAUUACGGGAC | -2.17 ± 0.29 | – |
| GUGGAGCAAUAUUACGGUGG | -3.76 ± 0.23 | -2.5 ± 0.23 |
| GUGGAGCAAUAUUACGGUGU | -2.5 ± 0.17 | -1.78 ± 0.22 |
| GUGGAGCAAUAUUACGGUUU | -3.22 ± 0.14 | -1.65 ± 0.15 |
| GUGGAGCAAUAUUACGUCGC | – | -1.71 ± 0.42 |
| GUGGAGCAAUAUUACGUCUU | -2.36 ± 0.24 | -2.36 ± 0.36 |
| GUGGAGCAAUAUUACGUUCU | -4.21 ± 0.26 | -2.38 ± 0.18 |
| GUGUAGCAAUAUUACGAGAU | -2.83 ± 0.26 | -1.23 ± 0.22 |
| GUGUAGCAAUAUUACGAUGC | -1.85 ± 0.16 | -0.552 ± 0.18 |
| GUGUAGCAAUAUUACGCGCG | -2.48 ± 0.36 | -2.62 ± 0.38 |
| GUGUAGCAAUAUUACGCGUA | -1.82 ± 0.26 | -0.729 ± 0.17 |
| GUGUAGCAAUAUUACGCUGA | -1.22 ± 0.18 | -1.58 ± 0.17 |
| GUGUAGCAAUAUUACGGCGU | -1.42 ± 0.11 | -1.04 ± 0.12 |
| GUGUAGCAAUAUUACGGGAU | -2.93 ± 0.17 | -2.18 ± 0.2 |
| GUGUAGCAAUAUUACGGGCC | -1.6 ± 0.23 | -1.85 ± 0.48 |
| GUGUAGCAAUAUUACGGGUA | -2.39 ± 0.2 | -2.42 ± 0.16 |
| GUGUAGCAAUAUUACGUGAC | -1.35 ± 0.11 | -1.29 ± 0.19 |
| GUGUAGCAAUAUUACGUGGC | -1.72 ± 0.18 | – |
| GUUAAGCAAUAUUACGAACA | -2.16 ± 0.29 | -1.32 ± 0.21 |
| GUUAAGCAAUAUUACGACGC | -1.05 ± 0.24 | -0.36 ± 0.21 |
| GUUAAGCAAUAUUACGAGCA | -1.9 ± 0.12 | -0.552 ± 0.11 |
| GUUAAGCAAUAUUACGAGCU | -1.76 ± 0.13 | -1.08 ± 0.15 |
| GUUAAGCAAUAUUACGAGGA | -1.5 ± 0.23 | -1.15 ± 0.39 |
| GUUAAGCAAUAUUACGAGUC | -3.05 ± 0.12 | -1.86 ± 0.15 |
